Test results from PMC9894935, “FMO rewires metabolism to promote longevity through tryptophan and one carbon metabolism in C. elegans” (Nature Communications, 2023).

Key:
purified protein [1] = substrate: NC(=O)C1=CN([C@@H]2O[C@H](COP(=O)(O)OP(=O)(O)OC[C@H]3O[C@@H](n4cnc5c(N)ncnc54)[C@H](OP(=O)(O)O)[C@@H]3O)[C@@H](O)[C@H]2O)C=CC1; assay: purified protein; assay type: biochemical, Caenorhabditis elegans; conditions: NADPH varied 10 µM to 1.5 mM, excess FAD, 25 mM sodium phosphate pH 8.5, 30 °C, varied: cofactor
purified protein [2] = substrate: N[C@@H](Cc1c[nH]c2ccccc12)C(=O)O; assay: purified protein; assay type: biochemical, Caenorhabditis elegans; conditions: 0.5 mM NADPH, excess FAD, 0.04 µM FMO-2, 25 mM sodium phosphate pH 8.5, 0.5 mM DETAPAC, 30 °C

B1: FMO-2 (CeFMO-2) (Caenorhabditis elegans) (protein)
chain: MGNKRVAVIGAGASGLPSIRHGLLYGFDVTCFEASDDIGGLWRYKSHETNESSVMKTTVINTSKEMTAYSDFTPQENLANFMHNNEMLNYFKSYAEHHGLMKHIKLRHRVLNIERSKNYDNDGTWKVIYQTPEEKTLEEIFDGVLVCSGHHAIPHWPKPFPGQNEFKGRIVHSHDYKDHKGYEDKVVVVVGIGNSGIDVAVEQSRIAKQVYLVTRRGTWLIPKLETRGLPFDIIMNTRFFSLYKLFPQAMLNSLVEYRINQRIDHDLYGLKPAHRVFSAHPSLNDELPNRIANGTVRIKPNIKKFDGYAIHFEDGTIVPHVDEVVMSTGFSFEFNLIEHGKLVPVSENEVDLFKYMFPVATSDHNSLCIIGLIQPFGSIMPVSEQQARVFFANMVSGNNLIPKKSQMSEDVLNKKEAMAQQFVKSRRHTIQVDYIPYMDELAELIGCQVPLLRTLFTDPVLGLRLFFGPNAGYCYRLAGPHTWNGARNAILTIDQRVRMATTTKPEPTNYTVPLVISSIILLLVIYFVM
notes: purified FMO-2 protein purchased from GenScript; assayed with excess FAD
Work on B1 yielded a Km (purified protein [1]) of 2500 ± 1240 µM, a kcat (purified protein [1]) of 264 ± 98 s⁻¹ and a Km (purified protein [2]) of 880 ± 430 µM. The kcat (purified protein [2]) was 9.7 ± 1.5 s⁻¹.
